Results: patent publication US20110136733A1 (IPSEN PHARMA S A S, published 2011)
Where no end group is shown, it is not given here. [ ]: non-standard residue; d: D form. The star is where a group is joined. Myristoyl = CCCCCCCCCCCCCC(=O)*; Ac6c = NC1(C(=O)O)CCCCC1; Nle = CCCC[C@H](N)C(=O)O; Orn = NCCC[C@H](N)C(=O)O; Ac5c = NC1(C(=O)O)CCCC1; Aib = CC(C)(N)C(=O)O

T1: human recombinant GIP receptor (human, UniProt P48546 22-466)
T1 construct: whole, on cells; Membranes of CHO-K1 cells expressing the receptor; also called hGIP receptor
T1 sequence (looked up): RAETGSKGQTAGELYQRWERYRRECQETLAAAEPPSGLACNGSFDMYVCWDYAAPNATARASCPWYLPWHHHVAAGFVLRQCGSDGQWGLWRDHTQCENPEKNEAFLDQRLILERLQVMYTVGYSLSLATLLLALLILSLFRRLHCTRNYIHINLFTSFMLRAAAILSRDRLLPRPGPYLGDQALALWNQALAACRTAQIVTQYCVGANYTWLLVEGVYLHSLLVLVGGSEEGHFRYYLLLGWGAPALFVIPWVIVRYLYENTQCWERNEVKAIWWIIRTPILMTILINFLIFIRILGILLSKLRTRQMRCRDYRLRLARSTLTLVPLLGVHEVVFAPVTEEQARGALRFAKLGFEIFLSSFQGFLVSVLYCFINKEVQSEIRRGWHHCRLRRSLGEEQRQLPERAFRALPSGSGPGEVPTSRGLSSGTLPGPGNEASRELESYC


The binders below were run against T1, human recombinant GIP receptor (assay: [125I]GIP competition, membranes of CHO-K1 cells expressing human GIP receptor).
In the case of Y[Aib]EGTF[Ac6c]SDYSIAMDKIHQQDFVNWLLAQKGKKNDWKHNITQQ-OH [(Aib^2, A6c^7, Gln^43)hGIP(1-43)-OH], the Ki is reported as 0.94 nM. For Y[Aib]EGTF[Ac5c]SDYSIAMDKIHQQDFVNWLLAQKGKKNDWKHNITQ-OH [(Aib^2, A5c^7)hGIP(1-42)-OH], the Ki was 0.41 nM. In the case of YXEGTFISDYXIAXDKIHQQDFVNWLLAQK (Aib at 2; A5c at 11; A6c at 14; C-terminal amide) [(Aib^2, A5c^11, A6c^14)hGIP(1-30)-NH2], the Ki is reported as 0.15 nM. Binder Y[Aib]EGTF[Ac6c]SDYSIAMDKIHQQDFVNWLLAQKGKKNDWKHNITQ-OH [(Aib^2, A6c^7)hGIP(1-42)-OH] has a Ki of 0.3 nM. YXEGTFISDYSIXMDKIHQQDFVNWLLAQK (Aib at 2 and 13; C-terminal amide) [(Aib^2, 13)hGIP(1-30)-NH2] showed a Ki of 0.33 nM. In the case of Y[Aib]EG[Aib]FISDYSIAMDKIHQQDFVNWLLAQKGKKNDWKHNITQ-OH [(Aib^2, 5)hGIP(1-42)-OH], the Ki is reported as 4.08 nM. With [Orn](Myristoyl)AEGTF[Ac6c]SDYSIAMDKIHQQDFVNWLLAQKGKKNDWKHNITQ-OH [[Orn^1(N-C(O)-(CH2)12-CH3), A6c^7]hGIP(1-42)-OH] the Ki was 21.5 nM. For YXEGTFXSDYSIAXDKIHQQDFVNWLLAQK (Aib at 2; A6c at 7 and 14; C-terminal amide) [(Aib^2, A6c^7, 14)hGIP(1-30)-NH2], the Ki was 1.19 nM. For YXEGTFISDYSIXXDKIHQQDFVNWLLAQK (Aib at 2 and 13; Nle at 14; C-terminal amide) [(Aib^2, 13, Nle^14)hGIP(1-30)-NH2], the Ki was 0.09 nM. In the case of Y[Aib]PGTFISDYSI[Aib][Nle]DKIHQQDFVNWLLAQK-NH2 [(Aib^2, 13, Pro^3, Nle^14)hGIP(1-30)-NH2], the Ki is reported as 0.07 nM. With YXEGTFISDYSIAXDKIHQQDFVNWLLAQKGKKNDWKHNITQ (A5c at 2; Nle at 14; C-terminal free acid) [(A5c^2, Nle^14)hGIP(1-42)-OH] the Ki was 15.9 nM. For YAEGTFISDYXIAMDKIHQQDFVNWLLAQKGKKNDWKHNIXQ (D-Ala at 2; A5c at 11 and 41; C-terminal free acid, X stands for the non-natural residue) [(D-Ala^2, A5c^11, 41)hGIP(1-42)-OH], the Ki was 0.36 nM. Work on YAXGTFISDYSIAXDKIHQQDFVNWLLAQKGKKNDWKHNITQ (4Hyp at 3; A6c at 14; C-terminal free acid) [(4Hyp^3, A6c^14)hGIP(1-42)-OH] yielded a Ki of 910 nM. For YXEGTFISDYSXAMDKIHQQDFVNWLLAQKGKKNDWKHNITQ (Aib at 2; A5c at 12; C-terminal free acid) [(Aib^2, A5c^12)hGIP(1-42)-OH], the Ki was 1.65 nM. In the case of XAEGTFISDYSIXMDKIHQQDFVNWLLAQKGKKNDWKHNITQ (4Hppa (3-(4-hydroxyphenyl)propionic acid) at 1; Aib at 13; C-terminal free acid) [(4Hppa^1, Aib^13)hGIP(1-42)-OH], the Ki is reported as 2.25 nM. YXEGTFXSDYSIAXDKIHQQDFVNWLLAQKGKKNDWKHNITQ (Aib at 2; A5c at 7; A6c at 14; C-terminal free acid) [(Aib^2, A5c^7, A6c^14)hGIP(1-42)-OH] gave a Ki of 0.63 nM. With YXEGTFISDYXIAMDKIHQQDFVNWLLAQKGKKNDWKHNITQ (Aib at 2; A5c at 11; C-terminal free acid) [(Aib^2, A5c^11)hGIP(1-42)-OH] the Ki was 0.08 nM. YAXGTFISDYSIXXDKIHQQDFVNWLLAQKGKKNDWKHNITQ (hPro at 3; Aib at 13; Nle at 14; C-terminal free acid) [(hPro^3, Aib^13, Nle^14)hGIP(1-42)-OH] was tested, and the Ki was 330 nM. In the case of YAXGTFISDYXIAMDKIHQQDFVNWLLAQKGKKNDWKHNITQ (Tic at 3; A5c at 11; C-terminal free acid) [(Tic^3, A5c^11)hGIP(1-42)-OH], the Ki is reported as 503 nM. YAPGTFISDYSIAXDKIHQQDFVNWLLAQKGKKNDWKHNITQ (A6c at 14; C-terminal free acid) [(Pro^3, A6c^14)hGIP(1-42)-OH] was tested, and the Ki was 214 nM. With YXEGTFISDYSXAMDKIHQQDFVNWLLAQKGKKNDWKHNITQ (Aib at 2 and 12; C-terminal free acid) [(Aib^2, 12)hGIP(1-42)-OH] the Ki was 4.98 nM. YAXGTFISDYXIAXDKIHQQDFVNWLLAQKGKKNDWKHNITQ (Tic at 3; A5c at 11; A6c at 14; C-terminal free acid) [(Tic^3, A5c^11, A6c^14)hGIP(1-42)-OH] was tested, and the Ki was 754 nM. Work on YAXGTFISDYSIXXDKIHQQDFVNWLLAQKGKKNDWKHNITQ (Dhp at 3; Aib at 13; Nle at 14; C-terminal free acid) [(Dhp^3, Aib^13, Nle^14)hGIP(1-42)-OH] yielded a Ki of 727 nM. YAEGTFISDYXIAMDKIHQQDFVNWLLAQKGKKNDWKHNXTQ (D-Ala at 2; A5c at 11 and 40; C-terminal free acid, X stands for the non-natural residue) [(D-Ala^2, A5c^11,40)hGIP(1-42)-OH] was tested, and the Ki was 0.59 nM. YXEGTFISDYXIAXDKIHQQDFVNWLLAQKGKKNDWKHNITQ (Aib at 2 and 11; Nle at 14; C-terminal free acid) [(Aib^2, 11, Nle^14)hGIP(1-42)-OH] was tested, and the Ki was 0.29 nM. Binder YAPGTFISDYSIXXDKIHQQDFVNWLLAQKGKKNDWKHNITQ (Aib at 13; Nle at 14; C-terminal free acid) [(Pro^3, Aib^13, Nle^14)hGIP(1-42)-OH] has a Ki of 667 nM. In the case of YXEGTFXSDYSIAXDKIHQQDFVNWLLAQKGKKNDWKHNITQ (Aib at 2; A6c at 7 and 14; C-terminal free acid) [(Aib^2, A6c^7, 14)hGIP(1-42)-OH], the Ki is reported as 0.83 nM. For XXEGTFISDYXIAXDKIHQQDFVNWLLAQKGKKNDWKHNITQ (NMe-Tyr at 1; Aib at 2; A5c at 11; Nle at 14; C-terminal free acid) [(NMe-Tyr^1, Aib^2, A5c^11, Nle^14)hGIP(1-42)-OH], the Ki was 0.19 nM. Work on YXEGTFXSDYSIAXDKIHQQDFVNWLLAQKGKKNDWKHNITQ (A5c at 2 and 7; A6c at 14; C-terminal free acid) [(A5c^2, 7, A6c^14)hGIP(1-42)-OH] yielded a Ki of 34.4 nM. YXEGTFISDYSIAXDKIHQQDFVNWLLAQKGKKNDWKHNITQ (Aib at 2; A6c at 14; C-terminal free acid) [(Aib^2, A6c^14)hGIP(1-42)-OH] gave a Ki of 0.07 nM. With YXEGTFISDYXIAXDKIHQQDFVNWLLAQKGKKNDWKHNITQ (Aib at 2; A5c at 11; A6c at 14; C-terminal free acid) [(Aib^2, A5c^11, A6c^14)hGIP(1-42)-OH] the Ki was 0.18 nM. Binder YXEGTFISDYSIXXDKIHQQDFVNWLLAQKGKKNDWKHNITQ (Aib at 2 and 13; Nle at 14; C-terminal free acid) [(Aib^2, 13, Nle^14)hGIP(1-42)-OH] has a Ki of 0.05 nM. Binder YXEGTFISDYXIAXDKIHQQDFVNWLLAQKGKKNDWKHNITQ (Aib at 2; A5c at 11; Nle at 14; C-terminal free acid) [(Aib^2, A5c^11, Nle^14)hGIP(1-42)-OH] has a Ki of 0.43 nM. YXEGTFXSDYSIAXDKIHQQDFVNWLLAQKGKKNDWKHNITQ (Aib at 2; A5c at 7 and 14; C-terminal free acid) [(Aib^2, A5c^7, 14)hGIP(1-42)-OH] gave a Ki of 0.22 nM. Binder YAEGTFISDYXIAXDKIHQQDFVNWLLAQKGKKNDWKHNIXQ (D-Ala at 2; A6c at 11, 14 and 41; C-terminal free acid, X stands for the non-natural residue) [(D-Ala^2, A6c^11, 14, 41)hGIP(1-42)-OH] has a Ki of 6.67 nM. YXEGTFISDYXIAXDKIHQQDFVNWLLAQKGKKNDWKHNITQ (Aib at 2 and 11; A6c at 14; C-terminal free acid) [(Aib^2, 11, A6c^14)hGIP(1-42)-OH] was tested, and the Ki was 0.73 nM. In the case of YAPGTFISDYXIAXDKIHQQDFVNWLLAQKGKKNDWKHNITQ (A5c at 11; A6c at 14; C-terminal free acid) [(Pro^3, A5c^11, A6c^14)hGIP(1-42)-OH], the Ki is reported as 648 nM. In the case of YXEGTFISDYXIAXDKIHQQDFVNWLLAQK (Aib at 2; A5c at 11; Nle at 14; C-terminal amide) [(Aib^2, A5c^11, Nle^14)hGIP(1-30)-NH2], the Ki is reported as 0.16 nM. Binder Y[Aib]EGTF[Ac6c]SDYSIA[Nle]DKIHQQDFVNWLLAQKGKKNDWKHNITQ-OH [(Aib^2, A6c^7, Nle^14)hGIP(1-42)-OH] has a Ki of 0.45 nM. YXEGTFXSDYSIAMDKIHQQDFVNWLLAQK (Aib at 2; A6c at 7; C-terminal amide) [(Aib^2, A6c^7)hGIP(1-30)-NH2] was tested, and the Ki was 0.03 nM. With Y[Aib]EGTF[Ac5c]SDYSIA[Nle]DKIHQQDFVNWLLAQKGKKNDWKHNITQ-OH [(Aib^2, A5c^7, Nle^14)hGIP(1-42)-OH] the Ki was 0.69 nM. YXEGTFISDYXIAMDKIHQQDFVNWLLAQK (Aib at 2; A5c at 11; C-terminal amide) [(Aib^2, A5c^11)hGIP(1-30)-NH2] gave a Ki of 0.09 nM. Work on Y[Aib]EG[Ac5c]FISDYSIAMDKIHQQDFVNWLLAQKGKKNDWKHNITQ-OH [(Aib^2, A5c^5)hGIP(1-42)-OH] yielded a Ki of 2.26 nM. YAPGTFISDYXIAMDKIHQQDFVNWLLAQK (A5c at 11; C-terminal amide) [(Pro^3, A5c^11)hGIP(1-30)-NH2] showed a Ki of 65.8 nM. Binder YAEGTFISDYXIAMDKIHQQDFVNWLLAQKGKKNDWKHNITQH (D-Ala at 2; A5c at 11; C-terminal free acid, X stands for the non-natural residue) [(D-Ala^2, A5c^11, His^43)hGIP(1-43)-OH] has a Ki of 0.56 nM. In the case of YGEGTFISDYXIAMDKIHQQDFVNWLLAQKGKKNDWKHNITQH (A5c at 11; C-terminal free acid) [(Gly^2, A5c^11, His^43)hGIP(1-43)-OH], the Ki is reported as 0.97 nM.

These binders were tested against T1, human recombinant GIP receptor (assay: [125I]GIP competition, membranes of CHO-K1 cells expressing human GIP receptor, same conditions as Table 2).
YAPGTFISDYSIAMDKIHQQDFVNWLLAQKGKKNDWKHNITQ-OH [[Pro^3]hGIP(1-42)-OH] showed a Ki of 171 nM.
